Reference: the supplement of paper PMC7125110
± gives the standard error. This sample holds only a part of the variants without activity.

B1: glmS ribozyme (parent)
chain: AUAAAAGCGCCAGAACUACAGAAAUGUAGUUGACGAGGAGGAGGUUUAUCGAAUUUUCGGCGGAUGCCUCCAAA

Variants of: B1
Assay: self-cleavage kobs at 2500 uM GlcN6P; higher = faster cleavage; RNA array
Conditions: with glucosamine-6-phosphate
Outline: (§1)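 Sequenced MiSeq chips were the platform: E. coli RNA polymerase transcribed barcoded ribozyme variants on them in situ, and a hybridised Cy3 probe tracked these at 37 °C. After glucosamine-6-phosphate (40 μM to 10 mM) in HEPES/KCl/Mg(OAc)2 buffer was flowed in, tiles were imaged over ~14 h. Signals normalised to baseline and to non-cleaving reference variants were reduced to per-tile medians and fit to one- or two-exponential decays to obtain kobs. kcat and KM were derived through weighted Michaelis–Menten fits across concentrations.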

Variant	self-cleavage kobs at 2500 uM GlcN6P
G7C G21U C67G	< 1e-05 s⁻¹
G32C A64G C70A	< 1e-05 s⁻¹
A33C G59C A64G G66A C70A	< 1e-05 s⁻¹
C10G C34U U46C C70U	< 1e-05 s⁻¹
G41U G43C G51U C68G	< 1e-05 s⁻¹
G29C U49G C61U	< 1e-05 s⁻¹
U47A A53G C70A	0.000177 ± 4e-05 s⁻¹
G38U U54G C71A	< 1e-05 s⁻¹
C10A C16G C50A C58G C61U	6.15e-05 ± 1.9e-05 s⁻¹
A6C G7C C10U G29C C58G	< 1e-05 s⁻¹
C8U G38A C70A	< 1e-05 s⁻¹
C16G A48C G60U A64U	< 1e-05 s⁻¹
A39G G66A U69G	3.43e-05 ± 1.3e-05 s⁻¹
A39C G59A G62C	< 1e-05 s⁻¹
U30G G43U U45A C68U	0.000375 ± 9.4e-05 s⁻¹
G35U C58G A64U	< 1e-05 s⁻¹
C34A U47C A53U	< 1e-05 s⁻¹
G40U U49A G62C C68U	< 1e-05 s⁻¹
G38C A53U	< 1e-05 s⁻¹
C11U A14G C70G	0.000303 ± 5e-05 s⁻¹
A36U A48U U56C	< 1e-05 s⁻¹
A6C G29A G37U	< 1e-05 s⁻¹
G40C U54G C70U	0.000933 ± 0.00021 s⁻¹

Variant	self-cleavage kobs at 2500 uM GlcN6P
G32A G44U U49A G63A	< 1e-05 s⁻¹
A6C A12U U49A A53G U54A	< 1e-05 s⁻¹
C11G G37A G60U G63C U69C C70U	< 1e-05 s⁻¹
G41A U46A G66A	9.01e-05 ± 3.1e-05 s⁻¹
C50G U56G G59U	8.66e-05 ± 3.9e-05 s⁻¹
A15C A39U U49A C50U A52G A53C	< 1e-05 s⁻¹
A14U G29A G40U U45A C50G C71G	< 1e-05 s⁻¹
A52U C68U C70U	5.68e-05 ± 1.7e-05 s⁻¹
G9C A12G C58G	< 1e-05 s⁻¹
A14U U30G G41U	0.000233 ± 7.4e-05 s⁻¹
A6G C34U G40C	< 1e-05 s⁻¹
C34A A36C G37U G51U	< 1e-05 s⁻¹
C8U A36U C50U	< 1e-05 s⁻¹
G7U G9U U56A G59U	< 1e-05 s⁻¹
C19A U30C	7.18e-05 ± 2.3e-05 s⁻¹
G38U U45G G51A C67U	< 1e-05 s⁻¹
G37A G40C A42G	0.000126 ± 4.4e-05 s⁻¹
A39U G66A C68G	4.5e-05 ± 2e-05 s⁻¹
G35U G41A A52U C71U	< 1e-05 s⁻¹
C11U G29A G38U U47C	< 1e-05 s⁻¹
A14G G51C A64U C67G C71U	< 1e-05 s⁻¹
G9U G41C G59A C71U	< 1e-05 s⁻¹
A15C G43A G44U G59U	< 1e-05 s⁻¹

Variant	self-cleavage kobs at 2500 uM GlcN6P
C34G C58A C71U	< 1e-05 s⁻¹
C67A C68U C70U	2.78e-05 ± 1.3e-05 s⁻¹
G9U A12U C68U	< 1e-05 s⁻¹
C8A G41A U65C	< 1e-05 s⁻¹
U31A A39G C67U	0.00111 ± 0.0004 s⁻¹
G35C G41A G44A G66A	< 1e-05 s⁻¹
A6G G38C G41U C68U	< 1e-05 s⁻¹
G35C G37C U54A G66U	< 1e-05 s⁻¹
A15U G35C C68G	< 1e-05 s⁻¹
A12G G13U G60U	< 1e-05 s⁻¹
A15C U31G G59C	< 1e-05 s⁻¹
U31A A48G G59A	0.000108 ± 3.6e-05 s⁻¹
C10U G29C G62C	< 1e-05 s⁻¹
C16G G59U G60C C68G	< 1e-05 s⁻¹
C16U C34U U47C G59U C71U	< 1e-05 s⁻¹
A12G U49A U65A	< 1e-05 s⁻¹
A12G G32U U45G G59U	< 1e-05 s⁻¹
A12G A42U U69A	0.000849 ± 0.00021 s⁻¹
G29A U30A A53G U65G	6.03e-05 ± 1.7e-05 s⁻¹
A15C U30A U31C C71G	0.000148 ± 5.9e-05 s⁻¹
A33U G35A U45G C50G C70A	< 1e-05 s⁻¹
G13A A36U G40A	< 1e-05 s⁻¹

Variants of: B1
Assay: self-cleavage kobs at 10000 uM GlcN6P; higher = faster cleavage; RNA array
Conditions: with glucosamine-6-phosphate
Outline: as §1

Variant	self-cleavage kobs at 10000 uM GlcN6P
A33C G59C A64G G66A C70A	< 1e-05 s⁻¹
A14G A15U G32A	0.00264 ± 0.00069 s⁻¹
U31A A36C	< 1e-05 s⁻¹
C16U U54A C70G	0.000121 ± 2.5e-05 s⁻¹
G32A U57C G62A C67G	< 1e-05 s⁻¹
C34A U47G A52U C70A	0.00102 ± 0.00046 s⁻¹
G38C A53U	< 1e-05 s⁻¹
C11U A14G C70G	0.000165 ± 3.1e-05 s⁻¹
A6C U31C G63U C71G	< 1e-05 s⁻¹
A6G A14G A53C	7.6e-05 ± 2.3e-05 s⁻¹
C19A U30C	6.71e-05 ± 2.2e-05 s⁻¹
A14C A23C	0.0057 ± 0.0012 s⁻¹
A33C A53G A64C	< 1e-05 s⁻¹
G9U G41C G59A C71U	< 1e-05 s⁻¹
C67A C68U C70U	6.71e-05 ± 1.9e-05 s⁻¹
G9C G43C C67U	< 1e-05 s⁻¹
A12U U31C C67G	0.000267 ± 5.5e-05 s⁻¹
A12G G13U G60U	< 1e-05 s⁻¹
A12G A42U U69A	0.00112 ± 0.00029 s⁻¹
